Laboratory results from patent US20240000892A1.

Target: IL-2 receptor (CD25, CD122 and CD132) on Kupffer cells of C57BL/6 mice (mouse (C57BL/6)) (UniProt P01590)
Test: cell-based or functional assay

UniProt P01590, sequence (P01590 22-268, chain 1 of 3): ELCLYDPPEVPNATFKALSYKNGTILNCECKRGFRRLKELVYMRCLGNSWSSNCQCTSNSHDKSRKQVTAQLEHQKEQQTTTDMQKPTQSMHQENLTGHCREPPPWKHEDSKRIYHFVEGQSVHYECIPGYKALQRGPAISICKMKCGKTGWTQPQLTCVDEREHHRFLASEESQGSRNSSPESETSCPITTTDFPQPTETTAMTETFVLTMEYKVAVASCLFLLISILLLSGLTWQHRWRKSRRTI
UniProt P01590, sequence (P16297 27-539, chain 2 of 3, further chain): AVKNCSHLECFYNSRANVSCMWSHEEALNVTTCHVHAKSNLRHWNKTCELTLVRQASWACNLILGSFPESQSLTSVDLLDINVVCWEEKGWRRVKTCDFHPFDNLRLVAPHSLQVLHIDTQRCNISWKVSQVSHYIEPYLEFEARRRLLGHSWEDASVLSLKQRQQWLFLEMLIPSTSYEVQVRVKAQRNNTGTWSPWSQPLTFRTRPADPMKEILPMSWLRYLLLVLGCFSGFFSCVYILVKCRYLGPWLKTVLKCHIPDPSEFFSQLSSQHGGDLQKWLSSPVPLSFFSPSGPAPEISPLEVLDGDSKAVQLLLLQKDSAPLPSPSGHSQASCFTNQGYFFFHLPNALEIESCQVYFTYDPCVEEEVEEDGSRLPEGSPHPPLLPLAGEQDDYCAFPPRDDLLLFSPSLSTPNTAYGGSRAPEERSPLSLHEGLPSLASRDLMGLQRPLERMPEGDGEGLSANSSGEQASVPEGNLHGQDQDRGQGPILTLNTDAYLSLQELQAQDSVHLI
UniProt P01590, sequence (P34902 23-369, chain 3 of 3, further chain): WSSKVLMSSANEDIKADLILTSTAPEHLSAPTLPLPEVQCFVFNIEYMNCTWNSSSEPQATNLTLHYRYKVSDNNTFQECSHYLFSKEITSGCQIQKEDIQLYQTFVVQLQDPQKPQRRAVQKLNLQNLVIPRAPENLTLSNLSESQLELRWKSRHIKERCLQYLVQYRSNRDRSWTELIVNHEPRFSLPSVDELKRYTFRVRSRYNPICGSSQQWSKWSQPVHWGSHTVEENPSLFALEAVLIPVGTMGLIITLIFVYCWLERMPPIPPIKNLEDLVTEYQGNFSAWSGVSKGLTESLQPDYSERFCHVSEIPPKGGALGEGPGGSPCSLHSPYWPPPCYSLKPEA

IL-2-dependent fold change in STAT5 phosphorylation in KCs, compared with CD4+ FoxP3+ splenic T regulatory cells: 10 fold lower
Substance: recombinant IL-2 (402 ML/CF, R&D Systems) (from UniProt P04351 21-169) (ligand)
